Results on eight variants are retold here after IntAct's records for PubMed 30126976.

B1: Olfactory receptor 5F1 (Homo sapiens), O95221 (parent)
chain: MTRKNYTSLTEFVLLGLADTLELQIILFLFFLVIYTLTVLGNLGMILLIRIDSQLHTPMYFFLANLSFVDVCNSTTITPKMLADLLSEKKTISFAGCFLQMYFFISLATTECILFGLMAYDRYAAICRPLLYSLIMSRTVYLKMAAGAFAAGLLNFMVNTSHVSSLSFCDSNVIHHFFCDSPPLFKLSCSDTILKESISSILAGVNIVGTLLVILSSYSYVLFSIFSMHSGEGRHRAFSTCASHLTAIILFYATCIYTYLRPSSSYSLNQDKVASVFYTVVIPMLNPLIYSLRSKEVKKALANVISRKRTSSFL
B2: Disintegrin and metalloproteinase domain-containing protein 22 (Homo sapiens), Q9P0K1 (parent)
chain: MQAAVAVSVPFLLLCVLGTCPPARCGQAGDASLMELEKRKENRFVERQSIVPLRLIYRSGGEDESRHDALDTRVRGDLGGPQLTHVDQASFQVDAFGTSFILDVVLNHDLLSSEYIERHIEHGGKTVEVKGGEHCYYQGHIRGNPDSFVALSTCHGLHGMFYDGNHTYLIEPEENDTTQEDFHFHSVYKSRLFEFSLDDLPSEFQQVNITPSKFILKPRPKRSKRQLRRYPRNVEEETKYIELMIVNDHLMFKKHRLSVVHTNTYAKSVVNMADLIYKDQLKTRIVLVAMETWATDNKFAISENPLITLREFMKYRRDFIKEKSDAVHLFSGSQFESSRSGAAYIGGICSLLKGGGVNEFGKTDLMAVTLAQSLAHNIGIISDKRKLASGECKCEDTWSGCIMGDTGYYLPKKFTQCNIEEYHDFLNSGGGACLFNKPSKLLDPPECGNGFIETGEECDCGTPAECVLEGAECCKKCTLTQDSQCSDGLCCKKCKFQPMGTVCREAVNDCDIRETCSGNSSQCAPNIHKMDGYSCDGVQGICFGGRCKTRDRQCKYIWGQKVTASDKYCYEKLNIEGTEKGNCGKDKDTWIQCNKRDVLCGYLLCTNIGNIPRLGELDGEITSTLVVQQGRTLNCSGGHVKLEEDVDLGYVEDGTPCGPQMMCLEHRCLPVASFNFSTCLSSKEGTICSGNGVCSNELKCVCNRHWIGSDCNTYFPHNDDAKTGITLSGNGVAGTNIIIGIIAGTILVLALILGITAWGYKNYREQRQLPQGDYVKKPGDGDSFYSDIPPGVSTNSASSSKKRSNGLSHSWSERIPDTKHISDICENGRPRSNSWQGNLGGNKKKIRGKRFRPRSNSTETLSPAKSPSSSTGSIASSRKYPYPMPPLPDEDKKVNRQSARLWETSI
B3: Mitogen-activated protein kinase 12 (Homo sapiens), P53778 (parent)
chain: MSSPPPARSGFYRQEVTKTAWEVRAVYRDLQPVGSGAYGAVCSAVDGRTGAKVAIKKLYRPFQSELFAKRAYRELRLLKHMRHENVIGLLDVFTPDETLDDFTDFYLVMPFMGTDLGKLMKHEKLGEDRIQFLVYQMLKGLRYIHAAGIIHRDLKPGNLAVNEDCELKILDFGLARQADSEMTGYVVTRWYRAPEVILNWMRYTQTVDIWSVGCIMAEMITGKTLFKGSDHLDQLKEIMKVTGTPPAEFVQRLQSDEAKNYMKGLPELEKKDFASILTNASPLAVNLLEKMLVLDAEQRVTAGEALAHPYFESLHDTEDEPQVQKYDDSFDDVDRTLDEWKRVTYKEVLSFKPPRQLGARVSKETPL
B4: Corticotropin-releasing factor receptor 1 (Homo sapiens), P34998-1 (parent)
chain: MGGHPQLRLVKALLLLGLNPVSASLQDQHCESLSLASNISGLQCNASVDLIGTCWPRSPAGQLVVRPCPAFFYGVRYNTTNNGYRECLANGSWAARVNYSECQEILNEEKKSKVHYHVAVIINYLGHCISLVALLVAFVLFLRLRPGCTHWGDQADGALEVGAPWSGAPFQVRRSIRCLRNIIHWNLISAFILRNATWFVVQLTMSPEVHQSNVGWCRLVTAAYNYFHVTNFFWMFGEGCYLHTAIVLTYSTDRLRKWMFICIGWGVPFPIIVAWAIGKLYYDNEKCWFGKRPGVYTDYIYQGPMILVLLINFIFLFNIVRILMTKLRASTTSETIQYRKAVKATLVLLPLLGITYMLFFVNPGEDEVSRVVFIYFNSFLESFQGFFVSVFYCFLNSEVRSAIRKRWHRWQDKHSIRARVARAMSIPTSPTRVSFHSIKQSTAV
B5: Prostaglandin D2 receptor (Homo sapiens), Q13258 (parent)
chain: MKSPFYRCQNTTSVEKGNSAVMGGVLFSTGLLGNLLALGLLARSGLGWCSRRPLRPLPSVFYMLVCGLTVTDLLGKCLLSPVVLAAYAQNRSLRVLAPALDNSLCQAFAFFMSFFGLSSTLQLLAMALECWLSLGHPFFYRRHITLRLGALVAPVVSAFSLAFCALPFMGFGKFVQYCPGTWCFIQMVHEEGSLSVLGYSVLYSSLMALLVLATVLCNLGAMRNLYAMHRRLQRHPRSCTRDCAEPRADGREASPQPLEELDHLLLLALMTVLFTMCSLPVIYRAYYGAFKDVKEKNRTSEEAEDLRALRFLSVISIVDPWIFIIFRSPVFRIFFHKIFIRPLRYRSRCSNSTNMESSL
B6: Ribosomal protein S6 kinase alpha-2 (Homo sapiens), Q15349 (parent)
chain: MDLSMKKFAVRRFFSVYLRRKSRSKSSSLSRLEEEGVVKEIDISHHVKEGFEKADPSQFELLKVLGQGSYGKVFLVRKVKGSDAGQLYAMKVLKKATLKVRDRVRSKMERDILAEVNHPFIVKLHYAFQTEGKLYLILDFLRGGDLFTRLSKEVMFTEEDVKFYLAELALALDHLHSLGIIYRDLKPENILLDEEGHIKITDFGLSKEAIDHDKRAYSFCGTIEYMAPEVVNRRGHTQSADWWSFGVLMFEMLTGSLPFQGKDRKETMALILKAKLGMPQFLSGEAQSLLRALFKRNPCNRLGAGIDGVEEIKRHPFFVTIDWNTLYRKEIKPPFKPAVGRPEDTFHFDPEFTARTPTDSPGVPPSANAHHLFRGFSFVASSLIQEPSQQDLHKVPVHPIVQQLHGNNIHFTDGYEIKEDIGVGSYSVCKRCVHKATDTEYAVKIIDKSKRDPSEEIEILLRYGQHPNIITLKDVYDDGKFVYLVMELMRGGELLDRILRQRYFSEREASDVLCTITKTMDYLHSQGVVHRDLKPSNILYRDESGSPESIRVCDFGFAKQLRAGNGLLMTPCYTANFVAPEVLKRQGYDAACDIWSLGILLYTMLAGFTPFANGPDDTPEEILARIGSGKYALSGGNWDSISDAAKDVVSKMLHVDPHQRLTAMQVLKHPWVVNREYLSPNQLSRQDVHLVKGAMAATYFALNRTPQAPRLEPVLSSNLAQRRGMKRLTSTRL

Variants of B1 are the subject of one experiment. As to conditions: with scrib_human SCRIB.
Target sequence in this assay (Q14160 whole entry): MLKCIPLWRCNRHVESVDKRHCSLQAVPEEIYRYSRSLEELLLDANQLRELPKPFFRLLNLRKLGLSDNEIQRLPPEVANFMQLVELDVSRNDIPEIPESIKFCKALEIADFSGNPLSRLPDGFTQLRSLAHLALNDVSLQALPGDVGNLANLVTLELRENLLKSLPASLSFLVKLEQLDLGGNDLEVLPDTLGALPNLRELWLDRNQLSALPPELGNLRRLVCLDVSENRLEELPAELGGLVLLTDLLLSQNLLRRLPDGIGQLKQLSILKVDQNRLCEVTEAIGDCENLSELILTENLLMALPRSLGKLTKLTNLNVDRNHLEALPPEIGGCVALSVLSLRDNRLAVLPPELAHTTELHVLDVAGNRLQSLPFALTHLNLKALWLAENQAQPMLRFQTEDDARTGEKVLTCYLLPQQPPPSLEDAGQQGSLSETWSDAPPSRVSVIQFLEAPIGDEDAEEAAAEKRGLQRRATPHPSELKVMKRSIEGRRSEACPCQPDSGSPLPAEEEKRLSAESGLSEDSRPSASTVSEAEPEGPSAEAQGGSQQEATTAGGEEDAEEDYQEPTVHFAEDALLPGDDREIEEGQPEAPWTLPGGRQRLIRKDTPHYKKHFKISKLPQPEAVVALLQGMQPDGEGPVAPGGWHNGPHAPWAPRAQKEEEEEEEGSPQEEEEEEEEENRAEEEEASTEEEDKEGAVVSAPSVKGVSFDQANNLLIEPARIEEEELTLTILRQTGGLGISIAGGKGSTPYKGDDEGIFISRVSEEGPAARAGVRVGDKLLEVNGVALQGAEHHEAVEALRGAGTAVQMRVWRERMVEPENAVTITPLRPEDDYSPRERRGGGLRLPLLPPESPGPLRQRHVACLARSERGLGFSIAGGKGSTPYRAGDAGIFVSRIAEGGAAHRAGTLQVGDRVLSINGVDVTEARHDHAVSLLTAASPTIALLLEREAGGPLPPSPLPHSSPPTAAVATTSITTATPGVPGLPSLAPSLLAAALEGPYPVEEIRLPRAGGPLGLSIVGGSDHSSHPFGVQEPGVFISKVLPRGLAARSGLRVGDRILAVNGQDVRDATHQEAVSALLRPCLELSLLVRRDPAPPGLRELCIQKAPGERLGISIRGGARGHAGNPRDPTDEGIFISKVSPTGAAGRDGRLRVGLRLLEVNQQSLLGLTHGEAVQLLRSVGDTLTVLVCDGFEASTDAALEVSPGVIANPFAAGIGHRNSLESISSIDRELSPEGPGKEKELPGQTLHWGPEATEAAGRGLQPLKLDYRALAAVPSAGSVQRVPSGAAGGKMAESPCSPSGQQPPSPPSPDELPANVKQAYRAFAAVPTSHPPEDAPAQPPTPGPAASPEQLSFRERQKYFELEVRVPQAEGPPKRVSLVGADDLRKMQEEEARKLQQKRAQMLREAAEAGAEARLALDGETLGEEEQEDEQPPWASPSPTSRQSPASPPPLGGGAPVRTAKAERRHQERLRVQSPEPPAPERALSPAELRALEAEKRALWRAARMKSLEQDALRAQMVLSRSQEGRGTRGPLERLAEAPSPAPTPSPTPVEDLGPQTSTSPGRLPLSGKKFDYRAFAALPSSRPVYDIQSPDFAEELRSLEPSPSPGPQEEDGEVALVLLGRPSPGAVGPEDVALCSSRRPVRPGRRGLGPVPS
Take S311E: the “effect of a mutation on the interaction” value is “causing an interaction”.

In the next experiment the parent is B2. As to conditions: with scrib_human SCRIB.
Target sequence in this assay (Q14160 whole entry): as above
As for S898E, the “effect of a mutation on the interaction” value is listed as “decreasing interaction strength”.

The next experiment covers variants of B3. As to conditions: with scrib_human SCRIB.
Target sequence in this assay (Q14160 whole entry): as above
Turning to T365E, the “effect of a mutation on the interaction” value is “disrupting interaction strength”.

In another experiment the parent is B3. As to conditions: with dlg1_human DLG1, Q12959.
Target sequence in this assay (Q12959 whole entry, looked up): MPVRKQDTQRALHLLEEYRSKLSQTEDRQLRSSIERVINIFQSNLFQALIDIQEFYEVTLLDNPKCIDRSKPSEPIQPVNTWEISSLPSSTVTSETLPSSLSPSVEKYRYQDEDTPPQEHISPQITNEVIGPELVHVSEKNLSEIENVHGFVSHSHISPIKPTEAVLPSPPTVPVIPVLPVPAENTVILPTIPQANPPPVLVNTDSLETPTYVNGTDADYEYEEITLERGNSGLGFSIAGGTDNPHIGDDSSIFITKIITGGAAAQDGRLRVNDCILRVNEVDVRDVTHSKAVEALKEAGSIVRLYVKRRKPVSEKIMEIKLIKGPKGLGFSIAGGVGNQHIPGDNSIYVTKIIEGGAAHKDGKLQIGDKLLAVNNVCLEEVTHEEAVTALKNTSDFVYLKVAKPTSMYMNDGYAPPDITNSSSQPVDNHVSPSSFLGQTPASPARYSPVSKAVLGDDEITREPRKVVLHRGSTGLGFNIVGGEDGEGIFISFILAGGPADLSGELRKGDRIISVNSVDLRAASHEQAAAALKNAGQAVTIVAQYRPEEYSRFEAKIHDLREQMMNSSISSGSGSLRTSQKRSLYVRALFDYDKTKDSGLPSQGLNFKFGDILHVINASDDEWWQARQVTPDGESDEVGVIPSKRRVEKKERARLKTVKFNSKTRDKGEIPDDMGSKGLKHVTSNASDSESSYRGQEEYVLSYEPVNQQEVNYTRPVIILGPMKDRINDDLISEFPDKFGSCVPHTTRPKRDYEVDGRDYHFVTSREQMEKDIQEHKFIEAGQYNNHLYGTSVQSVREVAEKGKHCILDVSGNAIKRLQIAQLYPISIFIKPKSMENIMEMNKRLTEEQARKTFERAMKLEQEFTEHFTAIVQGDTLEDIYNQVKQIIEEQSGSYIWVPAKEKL
Take T365E: the “effect of a mutation on the interaction” value is “disrupting interaction strength”.

Variants of B4 are the subject of a further experiment. As to conditions: with scrib_human SCRIB.
Target sequence in this assay (Q14160 whole entry): as the sequence (Q14160 whole entry) above
For the variant S441E, the “effect of a mutation on the interaction” value was “with no effect”.

In the next experiment the parent is B4. As to conditions: with dlg1_human DLG1, Q12959.
Target sequence in this assay (Q12959 whole entry, looked up): as the sequence (Q12959 whole entry, looked up) above
As to S441E, the “effect of a mutation on the interaction” value is given as “increasing interaction strength”. The same measure, in the same setting: the entry for S437E;S441E is “increasing interaction strength”.

Variants of B5 are the subject of the next experiment. As to conditions: with scrib_human SCRIB.
Target sequence in this assay (Q14160 whole entry): as the sequence (Q14160 whole entry) above
On to S358E, for which the “effect of a mutation on the interaction” value was “causing an interaction”.

The variants in a further experiment derive from B6. As to conditions: with scrib_human SCRIB.
Target sequence in this assay (Q14160 whole entry): as above
Consider S730A, for which the “effect of a mutation on the interaction” value was “with no effect”.

The variants in the next experiment derive from B6. As to conditions: with dlg1_human DLG1, Q12959.
Target sequence in this assay (Q12959 whole entry, looked up): as the sequence (Q12959 whole entry, looked up) above
With S730E, the “effect of a mutation on the interaction” value is “increasing interaction strength”.

Another experiment covers variants of B6. As to conditions: with scrib_human SCRIB. The source holds these as a separate data set.
With S730E, the “effect of a mutation on the interaction” value is on record as “increasing interaction strength”.

Variants of B6 are the subject of a further experiment. As to conditions: with shan1_human SHANK1, Q9Y566.
Sequence of shan1_human SHANK1, Q9Y566 (Q9Y566 whole entry): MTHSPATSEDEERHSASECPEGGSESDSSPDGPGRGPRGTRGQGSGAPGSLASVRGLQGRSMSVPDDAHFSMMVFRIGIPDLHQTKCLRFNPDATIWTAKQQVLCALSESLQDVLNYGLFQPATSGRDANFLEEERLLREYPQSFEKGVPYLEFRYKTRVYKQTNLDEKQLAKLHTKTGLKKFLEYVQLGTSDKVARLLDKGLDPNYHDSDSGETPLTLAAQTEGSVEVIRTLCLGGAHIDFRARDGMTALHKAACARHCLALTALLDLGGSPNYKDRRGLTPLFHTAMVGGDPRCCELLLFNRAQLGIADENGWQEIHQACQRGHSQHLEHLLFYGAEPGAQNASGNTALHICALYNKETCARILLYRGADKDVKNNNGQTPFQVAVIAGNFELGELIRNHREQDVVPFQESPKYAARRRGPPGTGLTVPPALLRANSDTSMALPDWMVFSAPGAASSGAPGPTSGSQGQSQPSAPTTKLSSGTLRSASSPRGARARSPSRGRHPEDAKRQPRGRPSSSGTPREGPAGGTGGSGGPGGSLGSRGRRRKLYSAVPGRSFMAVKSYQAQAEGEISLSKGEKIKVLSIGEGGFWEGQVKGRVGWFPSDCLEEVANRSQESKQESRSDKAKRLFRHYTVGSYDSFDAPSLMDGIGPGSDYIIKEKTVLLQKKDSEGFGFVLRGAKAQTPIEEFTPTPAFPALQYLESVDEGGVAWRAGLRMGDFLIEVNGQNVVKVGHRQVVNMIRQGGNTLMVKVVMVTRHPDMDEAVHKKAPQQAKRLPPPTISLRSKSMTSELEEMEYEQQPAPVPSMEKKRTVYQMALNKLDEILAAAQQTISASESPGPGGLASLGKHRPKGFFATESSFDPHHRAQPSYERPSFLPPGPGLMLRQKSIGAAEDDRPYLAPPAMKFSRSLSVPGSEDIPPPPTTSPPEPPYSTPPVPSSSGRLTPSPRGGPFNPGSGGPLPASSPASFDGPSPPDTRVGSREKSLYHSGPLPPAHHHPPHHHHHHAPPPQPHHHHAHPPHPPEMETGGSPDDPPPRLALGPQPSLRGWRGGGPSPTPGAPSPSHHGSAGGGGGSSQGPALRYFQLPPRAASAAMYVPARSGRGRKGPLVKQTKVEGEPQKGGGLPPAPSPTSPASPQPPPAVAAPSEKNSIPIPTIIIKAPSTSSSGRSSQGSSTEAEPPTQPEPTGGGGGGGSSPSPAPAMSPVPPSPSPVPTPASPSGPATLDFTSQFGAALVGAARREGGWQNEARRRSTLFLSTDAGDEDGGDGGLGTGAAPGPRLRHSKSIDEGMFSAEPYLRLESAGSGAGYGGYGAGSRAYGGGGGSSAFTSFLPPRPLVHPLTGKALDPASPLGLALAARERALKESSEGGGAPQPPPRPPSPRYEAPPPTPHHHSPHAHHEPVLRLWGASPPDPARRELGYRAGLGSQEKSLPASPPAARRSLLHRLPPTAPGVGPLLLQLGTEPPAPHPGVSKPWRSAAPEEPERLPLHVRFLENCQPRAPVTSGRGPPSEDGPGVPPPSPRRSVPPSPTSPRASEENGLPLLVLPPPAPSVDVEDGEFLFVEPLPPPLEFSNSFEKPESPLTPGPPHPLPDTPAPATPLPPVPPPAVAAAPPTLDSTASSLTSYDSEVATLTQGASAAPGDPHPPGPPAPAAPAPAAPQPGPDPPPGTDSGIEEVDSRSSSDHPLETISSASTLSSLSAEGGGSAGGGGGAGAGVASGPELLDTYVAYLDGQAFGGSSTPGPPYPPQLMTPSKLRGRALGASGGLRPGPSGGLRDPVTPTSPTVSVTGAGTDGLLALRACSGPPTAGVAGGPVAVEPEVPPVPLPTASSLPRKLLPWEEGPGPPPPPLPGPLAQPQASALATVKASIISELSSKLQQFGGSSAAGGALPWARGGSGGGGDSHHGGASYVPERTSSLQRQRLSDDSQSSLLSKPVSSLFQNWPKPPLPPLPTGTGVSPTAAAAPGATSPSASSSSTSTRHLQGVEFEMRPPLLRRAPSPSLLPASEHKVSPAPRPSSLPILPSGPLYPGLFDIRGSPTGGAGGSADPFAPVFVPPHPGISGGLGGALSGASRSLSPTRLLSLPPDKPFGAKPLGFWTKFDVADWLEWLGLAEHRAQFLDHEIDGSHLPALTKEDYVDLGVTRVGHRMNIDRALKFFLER
Consider S730E, for which the “effect of a mutation on the interaction” value is recorded as “decreasing interaction strength”.

Another experiment covers variants of B6. As to conditions: with scrib_human SCRIB. The source holds these as a separate data set.
Regarding S730E, the “effect of a mutation on the interaction” value is “causing an interaction”.
